From patent US20180305451A1 (COMPUGEN, published 2018)

Molecular target: T1, HIDE1_HH-1 (Human ECD + human IgG1 Fc mutated C220S at hinge), without SP (human)
T1 construct: Batch #280 in the Serotec and phage display work; also called HIDE1 hECD-hIg; HIDE1 (H:H) recombinant Fc fusion protein
Assay: SPR (ProteOn), Fab PPE over captured HIDE1-HH-1, 1:1 fit
Procedure: Preliminary Fab binding kinetics were determined using Fab PPEs produced as described in paragraph [001064] (“Fab PPE production”)[001064]. Studies were conducted using Biacore 3000 and ProteOn XPR 36 instruments at 22° C.
A high density goat anti-human Fc antibody (Invitrogen) was immobilized by standard amine coupling over all lanes of a GLC chip using a ProteOn XPR 36 biosensor (Biorad). This surface was used to capture the recombinant HIDE1-H:H fusion protein (GenScript Lot 393383-21, batch #280) or a control Fc fusion protein (CD155, Sino Biologicals) in the vertical flow-cell direction at a concentration of ˜0.5 μg/mL for 90 seconds.

T1 sequence (chain, as listed by the source C220S C220S limits assumed): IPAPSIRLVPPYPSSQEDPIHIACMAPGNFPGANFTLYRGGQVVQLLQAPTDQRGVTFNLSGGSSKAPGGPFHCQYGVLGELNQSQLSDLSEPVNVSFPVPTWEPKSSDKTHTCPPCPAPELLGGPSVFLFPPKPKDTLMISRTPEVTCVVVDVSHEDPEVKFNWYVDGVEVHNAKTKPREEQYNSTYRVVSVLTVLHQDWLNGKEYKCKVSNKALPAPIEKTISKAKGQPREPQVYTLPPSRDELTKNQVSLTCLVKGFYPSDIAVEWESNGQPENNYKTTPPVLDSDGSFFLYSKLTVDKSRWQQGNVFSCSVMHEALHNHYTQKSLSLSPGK

Binder	Kd	koff	kon
CPA.12.007 Fab (A08 S398-01.E08) (Fab, V domains shown, XOMA031 library Fab in periplasmic extract) VH: EVQLVESGGGVVQPGESLRLSCAASGFTFSSYGFHWVRQSPGEGLEWLAVISYDGTSKSYADSVKGRFTVSRDNSKETLYLQLSSLRREDTALYYCARDTWGYYYGMDVWGQGTTVTVSS VL: DIQMTQSPSFLSGSVGDRVSISCRASQDIRSHLAWYQRKPGEAPKLLIYTASSLQGGVPLRFSGSGSGTEFTLTISSLQPEDSATYYCQHLHLYPLTFGGGTKLEIKR	1.6 nM	0.00034 s⁻¹	210000 M⁻¹ s⁻¹
CPA.12.001 Fab (A01 S397-01.A04) (Fab, V domains shown, XOMA031 library Fab in periplasmic extract) VH: QVQLVESGGGLVQPGRSLRLSCAASGFTFSSYGMHWVRQAPGKGLEWVAVISYDGSNKYYADSVKGRFTISRDNSKNTLYLQMNSLRAEDTAVYYCASEGVDFWSGLDYWGQGTLVTVSS VL: QSALTQPRSASGSAGQSVTISCTGTSSDVGGHNYVSWYQQFPGKAPKLLIYEVSHRPSGVPDRFSGSKSGNTASLTVSGLQAEDEADYYCSSYADLNNLMFGGGTKLTVLG	1.2 nM	0.00081 s⁻¹	670000 M⁻¹ s⁻¹
CPA.12.005 Fab (A06 S397-01.H07) (Fab, V domains shown, XOMA031 library Fab in periplasmic extract) VH: QVQLVESGGGVVQPGRSLRVSCAVSGFTFSSYGMHWVRQAPGGGLEWVAVMSYEGSFRHYADSVKGRFTISRDNSKNTLFLQMDSLRAEDTAVYYCARDRPAGYTSGWGILDYWGQGTLVTVSS VL: EIVMTQSPATLSLSPGERATLSCRASQSVSSYLAWYQQKPGQAPRLLIYDASNRATGIPARFSGSGSGTDFTLTISSLEPEDFAVYYCQQRSNWPLTFGGGTKVDIKR	2.3 nM	0.001 s⁻¹	440000 M⁻¹ s⁻¹
CPA.12.004 Fab (A04 S397-01.D06) (Fab, V domains shown, XOMA031 library Fab in periplasmic extract) VH: EVQLVETGGGLIQPGRSLRLSCVASDFRFSNHAMHWVRQAPGKELEWVAVISSDGSNRQYAYSVKGRFTISRDNSKNTLYLEMNILGPEDTAVYFCVRSHLGPEWYYGMDVWGQGTTVTVSS VL: DIQMTQSPSSLSTSVGDSVTITCRSSQSISTFLSWFQHKPGKAPNLLIYDASSLQSGVPSRFSGSGSGTDFTLTISSLQPEDFATYYCQQSDYLPFTFGPGTKVEIKR	2.1 nM	0.0033 s⁻¹	1.6e+06 M⁻¹ s⁻¹
CPA.12.006 Fab (A07 S398-01.D09) (Fab, V domains shown, XOMA031 library Fab in periplasmic extract) VH: EVQLVESGGGVVQPGRSLRLSCAASGFTFSSFAMHWVRQAPGKGPEWLGIILYEGGHVVYADSVRGRLTISRDNSKNTLYLQMDSLRDEDTAVYYCAKGFYHAFDVWGQGTMVTVSS VL: QAVLTQPASLSASPGASASLTCTLRSGINVGTYRIYWYQQKPGSPPQYLLRYKSDSDKQQGSGVPSRFSGSKDASANAGILLISGLQSEDEADYYCMIWHSSAWVFGGGTQLTVLG	3.9 nM	0.00027 s⁻¹	68000 M⁻¹ s⁻¹

The next binders have a lower Kd than those just listed; values first:

Kd	koff	kon	Binder
0.91 nM	0.00022 s⁻¹	250000 M⁻¹ s⁻¹	CPA.12.003 Fab (A03 S397-01.A12) (Fab, V domains shown, XOMA031 library Fab in periplasmic extract) VH: QVQLQESGPGLVTPSETLSLTCTVSGGSISSVSYYWGWVRQPPGKGLEWIGSIYYSGTTAHNPSLKSRVTMAVDTSKNQFSLSLSSVTAADTAVYFCARGWRYYEDYYFDHWGQGTLVTVSS VL: DIQMTQSPSTLSASVGDRVTITCRASQSINRWLAWYQQKPGKAPKILIYTASSLESGVPSRFSGSGSGTEFTLTISSLQPDDFATYYCQQYNSYPITFGQGTRLEIKR
1 nM	0.0014 s⁻¹	1.4e+06 M⁻¹ s⁻¹	CPA.12.009 Fab (A10 S398-02.A04) (Fab, V domains shown, XOMA031 library Fab in periplasmic extract) VH: QMQLVQSGAEVKKPGASVKVSCKASGYTFTTHAFSWVRQAPGLGLEWMGWISTYNGNTKYEQKFQGRVTLTTDSSTNTAYMELRSLRSDDTAVYYCVRDSRAFDVWGQGTMVTVSS VL: DIQLTQSPSFLSASVGDRVTITCRASQGINSYLAWYQQKPGAAPKLLIYAASTLQSGVPSRFSGSGSGTEFTLTISSLQPEDFATYYCQQLNTYPLIFGQGTRLEIKR
0.64 nM	0.00019 s⁻¹	290000 M⁻¹ s⁻¹	CPA.12.011 Fab (B03 S400-01.E01) (Fab, V domains shown, XOMA031 library Fab in periplasmic extract) VH: EVQLVESGGGLVQPGGTLRLSCVVSGFTFSSYAMSWVRQAPGKGLEWVSGISGSGGSTYISSGRTYRSTYYADSVKGRFTIARDNSENTLFLQLNSLRAEDTAIYYCAKVNSGEYAHTFDYWGQGTLVTVSS VL: DIQMTQSPSSLSASVGDRVTITCRASQGISNYLVWYQQKPGKAPKSLIYAASSLQSGVPSRFSGSGSGTDFTLTISSLQPEDFATYYCQQYNYYPITFGQGTRLEIKR
